We go through 14 molecules from patent publication US20150118233A1.

Assay [1] deals with hRSV FTM- NN protein (membrane anchorless form of the Long fusion protein, 70 kDa) (hRSV strain Long). Put plainly: binding ELISA on immobilised FTM- protein; detection with rabbit anti-VHH and HRP goat anti-rabbit. (In an ELISA, binding on a coated surface is turned into a signal by an enzyme label.)
Substrate in assay [2]: F protein of Long escape mutant R7C2/1 (K272E in antigenic site II) (hRSV strain Long escape mutant)
Kind of assay: ELISA on extract of HEp-2 cells infected with R7C2/1.

The target in assay [3] is hRSV FTM- NN protein (membrane anchorless form of the Long fusion protein, 70 kDa) (hRSV strain Long). Put plainly: competition ELISA on coated FTM- NN; competitor biotinylated Synagis Fab.
Substrate in assay [4]: F protein of hRSV strain Long (hRSV strain Long)
Kind of assay: binding ELISA on coated hRSV (Hytest), anti-VHH detection.

Assay [5] deals with hRSV FTM- NN protein (membrane anchorless form of the Long fusion protein, 70 kDa) (hRSV strain Long). Kind of assay: SPR (Biacore T100), FTM- NN amine-coupled, 1:1 Langmuir fit. On the technique in general: Surface plasmon resonance follows binding to a sensor surface in real time, without labels.
Substrate in assay [6]: F protein of hRSV strain Long (hRSV strain Long)
Put plainly: cell-based or functional assay.

Assay [7] concerns the target hRSV FTM- NN protein (membrane anchorless form of the Long fusion protein, 70 kDa) (hRSV strain Long). Put plainly: SPR (Biacore) on Ftm-NN protein.
The target is the same in assay [8]. Kind of assay: SPR (Biacore) on Ftm-NN protein; Table B-5 run (selected NC41 variants), separate from Table B-1.
Assay [9] has the same target. Put plainly: Alphascreen competition: FTM- NN (0.3 nM) bridged by biotinylated Synagis Fab and 101F Fab acceptor beads.
Substrate in assay [10]: F protein of hRSV strain B-1 (hRSV strain B-1)
Kind of assay: cell-based or functional assay.

A value given as a limit tells only on which side of the number the result lay.

B1: RSV116 (NC41-15GS-NC41) (bispecific antibody)
chain: EVQLVESGGGLVQAGGSLSISCAASGGSLSNYVLGWFRQAPGKEREFVAAINWRGDITIGPPNVEGRFTISRDNAKNTGYLQMNSLAPDDTAVYYCGAGTPLNPGAYIYDWSYDYWGRGTQVTVSSGGGGSGGGGSGGGGSEVQLVESGGGLVQAGGSLSISCAASGGSLSNYVLGWFRQAPGKEREFVAAINWRGDITIGPPNVEGRFTISRDNAKNTGYLQMNSLAPDDTAVYYCGAGTPLNPGAYIYDWSYDYWGRGTQVTVSS
Usually EC50 (read off the curve) stands for the midpoint of the concentration-response curve. Take B1: the EC50 (read off the curve) in assay [1] stood at 0.3 nM.

B2: RSV106 (7B2-15GS-7B2) (VHH)
chain: EVQLVESGGGLVQAGDSLRLSCAASGRTFSSYAMGWFRQAPGKEREFVAAISWSDGSTYYADSVKGRFTISRDNAKNTVYLQMNSLKPEDTAVYYCAADLTSTNPGSYIYIWAYDYWGQGTQVTVSSGGGGSGGGGSGGGGSEVQLVESGGGLVQAGDSLRLSCAASGRTFSSYAMGWFRQAPGKEREFVAAISWSDGSTYYADSVKGRFTISRDNAKNTVYLQMNSLKPEDTAVYYCAADLTSTNPGSYIYIWAYDYWGQGTQVTVSS
As to B2, the binding (% reactivity relative to Long wild type) in assay [2] stood at 4.4%.

B3: RSV404 (15H8-15GS-15H8-15GS-15H8) (VHH)
chain: EVQLVESGGGLVQAGGSLRLSCAASGRSFSNYVLGWFRQAPGKEREFVAAISFRGDSAIGAPSVEGRFTISRDNAKNTGYLQMNSLVPDDTAVYYCGAGTPLNPGAYIYDWSYDYWGRGTQVTVSSGGGGSGGGGSGGGGSEVQLVESGGGLVQAGGSLRLSCAASGRSFSNYVLGWFRQAPGKEREFVAAISFRGDSAIGAPSVEGRFTISRDNAKNTGYLQMNSLVPDDTAVYYCGAGTPLNPGAYIYDWSYDYWGRGTQVTVSSGGGGSGGGGSGGGGSEVQLVESGGGLVQAGGSLRLSCAASGRSFSNYVLGWFRQAPGKEREFVAAISFRGDSAIGAPSVEGRFTISRDNAKNTGYLQMNSLVPDDTAVYYCGAGTPLNPGAYIYDWSYDYWGRGTQVTVSS
On to B3, for which, in [1], the EC50 (read off the curve) came out at 0.3 nM.

B4: Nanobody 15H8 (VHH)
VHH: EVQLVESGGGLVQAGGSLRLSCAASGRSFSNYVLGWFRQAPGKEREFVAAISFRGDSAIGAPSVEGRFTISRDNAKNTGYLQMNSLVPDDTAVYYCGAGTPLNPGAYIYDWSYDYWGRGTQVTVSS
Usually EC50 stands for the concentration giving half of the maximal effect. The term Kd denotes the concentration at which binding is half-saturated. Low readings indicate a tighter complex, high ones a looser complex. By koff is commonly meant the rate constant with which the complex falls apart. High values mean a short-lived complex, low ones a long-lived complex. By kon is commonly meant the rate constant with which the complex forms. Turning to B4, in [3], the EC50 came to 39 nM. In addition, in assay [4], the concentration for a half-maximal effect (EC50) was 0.83 nM. In assay [5], this molecule came in with a Kd of 16 nM, a koff of 0.021 s⁻¹ and a kon of 1.2e+06 M⁻¹ s⁻¹. In assay [1], the EC50 (read off the curve) was found to be 1 nM. Besides, in assay [6], the RSV neutralization IC50 was 200 nM.

B5: Nanobody 191E4 (VHH)
VHH: EVQLVESGGGLVQAGGSLRLSCAASGPTFSADTMGWFRQAPGKEREFVATIPWSGGIAYYSDSVKGRFTMSRDNAKNTVDLQMNSLKPEDTALYYCAGSSRIYIYSDSLSERSYDYWGQGTQVTVSS
For B5, the EC50 in [4] is 0.083 nM. In [5], this molecule displayed a Kd of 0.27 nM, a koff of 0.00015 s⁻¹ and a kon of 570000 M⁻¹ s⁻¹. In addition, the binding (% reactivity relative to Long wild type) in assay [2] was > 75%.

B6: Nanobody 191D3 (VHH)
VHH: EVQLVESGGGLVQAGGSLRLSCEASGRTYSRYGMGWFRQAPGKEREFVAAVSRLSGPRTVYADSVKGRFTISRDNAENTVYLQMNSLKPEDTAVYTCAAELTNRNSGAYYYAWAYDYWGQGTQVTVSS
Consider B6, for which the EC50 in [3] was determined as 5.9 nM. Moreover, the EC50 in assay [4] worked out at 0.15 nM. In assay [5], this molecule had a Kd of 1.9 nM, a koff of 0.0028 s⁻¹ and an on-rate constant (kon) of 1.5e+06 M⁻¹ s⁻¹. The RSV neutralization IC50 in assay [6] came out at 253 nM.

B7: Nanobody 1E4 (VHH)
VHH: EVQLVESGGGLVQAGGSLRLSCEASGRTFSSYGMGWFRQAPGKEREFVAAVSRLSGPRTVYADSVKGRFTISRDNAENTVYLQMNSLKPEDTAVYTCAAELTNRNPGAYYYTWAYDYWGQGTQVTVSS
As for B7, the EC50 in assay [3] stood at 4.5 nM. In assay [4], the EC50 stood at 0.066 nM. Moreover, in assay [5], the Kd amounted to 1.6 nM, the koff worked out at 0.0013 s⁻¹ and the kon worked out at 800000 M⁻¹ s⁻¹. In addition, the RSV neutralization IC50 in assay [6] stood at 380 nM.

B8: Nanobody 15B3 (VHH)
VHH: EVQLVESGGGLVQPGGSLRLSCAASGLTLDYYALGWFRQAPGKEREGVSCISSSDHSTTYTDSVKGRFTISWDNAKNTLYLQMNSLKPGDTAVYYCAADPALGCYSGSYYPRYDYWGQGTQVTVSS
With B8, the EC50 in assay [4] came to 0.058 nM. In assay [5], this molecule came in with a Kd of 0.67 nM, an off-rate constant (koff) of 0.00027 s⁻¹ and a kon of 410000 M⁻¹ s⁻¹. For the same molecule, in [2], the binding (% reactivity relative to Long wild type) is > 75%.

B9: Nanobody NC41 (VHH)
VHH: EVQLVESGGGLVQAGGSLSISCAASGGSLSNYVLGWFRQAPGKEREFVAAINWRGDITIGPPNVEGRFTISRDNAKNTGYLQMNSLAPDDTAVYYCGAGTPLNPGAYIYDWSYDYWGRGTQVTVSS
B9: the EC50 in assay [3] is 32 nM. For the same molecule, in assay [4], the EC50 amounted to 0.41 nM. In assay [7], this molecule displayed a koff of 0.0067 s⁻¹ and a kon of 1.7e+06 M⁻¹ s⁻¹. For the same molecule, in assay [5], the Kd came out at 8.1 nM, the koff turned out to be 0.0067 s⁻¹ and the kon is 820000 M⁻¹ s⁻¹. The same molecule displayed an EC50 (read off the curve) in assay [1] of 1 nM. In assay [6], the Neutralization IC50 (first assay) is 202 nM, the Neutralization IC50 (second assay) was 122 nM and the RSV neutralization IC50 was 58 nM. In [8], the equilibrium dissociation constant (Kd) came out at 4 nM.

B10: Synagis® Fab (Fab, part only; not given: Constant regions, biotin sites, V domains shown, not shown: another chain or arm of the molecule)
VH: QVTLRESGPALVKPTQTLTLTCTFSGFSLSTSGMSVGWIRQPPGKALEWLADIWWDDKKDYNPSLKSRLTISKDTSKNQVVLKVTNMDPADTATYYCARSMITNWYFDVWGAGTTVTVSS
VL: DIQMTQSPSTLSASVGDRVTITCKCQLSVGYMHWYQQKPGKAPKLLIYDTSKLASGVPSRFSGSGSGTEFTLTISSLQPDDFATYYCFQGSGYPFTFGGGTKLEIK
In general, IC50 refers to the concentration that gives 50% inhibition. A high value points to a need for much substance. As to B10, the IC50 in assay [9] was determined as 0.597 nM.

B11: RSV400 (7B2-15GS-7B2-15GS-7B2) (bispecific antibody)
chain: EVQLVESGGGLVQAGDSLRLSCAASGRTFSSYAMGWFRQAPGKEREFVAAISWSDGSTYYADSVKGRFTISRDNAKNTVYLQMNSLKPEDTAVYYCAADLTSTNPGSYIYIWAYDYWGQGTQVTVSSGGGGSGGGGSGGGGSEVQLVESGGGLVQAGDSLRLSCAASGRTFSSYAMGWFRQAPGKEREFVAAISWSDGSTYYADSVKGRFTISRDNAKNTVYLQMNSLKPEDTAVYYCAADLTSTNPGSYIYIWAYDYWGQGTQVTVSSGGGGSGGGGSGGGGSEVQLVESGGGLVQAGDSLRLSCAASGRTFSSYAMGWFRQAPGKEREFVAAISWSDGSTYYADSVKGRFTISRDNAKNTVYLQMNSLKPEDTAVYYCAADLTSTNPGSYIYIWAYDYWGQGTQVTVSS
B11 showed an EC50 (read off the curve) in assay [1] of 0.3 nM. For the same molecule, the binding (% reactivity relative to Long wild type) in assay [2] turned out to be 13%.

B12: Nanobody NC23 (VHH)
VHH: EVQLVESGGGLVQPGGSLRLSCAASGRTFSSIAMGWFRQAPGKEREFVAAISWSRGRTFYADSVKGRFIISRDDAANTAYLQMNSLKPEDTAVYYCAVDTASWNSGSFIYDWAYDHWGQGTQVTVSS
B12: the EC50 in [3] worked out at 2.3 nM. In [4], the EC50 was determined as 0.1 nM. Moreover, in assay [5], the equilibrium dissociation constant (Kd) came out at 0.92 nM, the koff was 0.00074 s⁻¹ and the kon stood at 800000 M⁻¹ s⁻¹. In assay [6], the RSV neutralization IC50 stood at 144 nM.

B13: Nanobody 7B2 (VHH)
VHH: EVQLVESGGGLVQAGDSLRLSCAASGRTFSSYAMGWFRQAPGKEREFVAAISWSDGSTYYADSVKGRFTISRDNAKNTVYLQMNSLKPEDTAVYYCAADLTSTNPGSYIYIWAYDYWGQGTQVTVSS
B13 showed a 50% effective concentration (EC50) in assay [3] of 1.9 nM. Besides, the EC50 in assay [4] was determined as 0.09 nM. Moreover, in assay [5], the Kd was found to be 1.1 nM, the koff was 0.00065 s⁻¹ and the kon worked out at 570000 M⁻¹ s⁻¹. The molecule further gave an EC50 (read off the curve) in assay [1] of 0.3 nM. Moreover, the RSV neutralization IC50 in [6] came out at 91 nM.

B14: RSV407 (NC41-15GS-NC41-15GS-NC41) (VHH)
chain: EVQLVESGGGLVQAGGSLSISCAASGGSLSNYVLGWFRQAPGKEREFVAAINWRGDITIGPPNVEGRFTISRDNAKNTGYLQMNSLAPDDTAVYYCGAGTPLNPGAYIYDWSYDYWGRGTQVTVSSGGGGSGGGGSGGGGSEVQLVESGGGLVQAGGSLSISCAASGGSLSNYVLGWFRQAPGKEREFVAAINWRGDITIGPPNVEGRFTISRDNAKNTGYLQMNSLAPDDTAVYYCGAGTPLNPGAYIYDWSYDYWGRGTQVTVSSGGGGSGGGGSGGGGSEVQLVESGGGLVQAGGSLSISCAASGGSLSNYVLGWFRQAPGKEREFVAAINWRGDITIGPPNVEGRFTISRDNAKNTGYLQMNSLAPDDTAVYYCGAGTPLNPGAYIYDWSYDYWGRGTQVTVSS
In turn, B14 registered an EC50 (read off the curve) in assay [1] of 0.2 nM. In addition, in assay [10], the Neutralization IC50 is 0.66 nM and the Neutralization, ratio to Synagis came out at 3 fold. In [6], the Neutralization IC50 was determined as 0.0941 nM and the Neutralization, ratio to Synagis worked out at 59 fold.
